The target in this assay is biotinylated hPD-L1 (extracellular domain of human PD-L1, Ala18 to Thr239, expressed in E. coli, non-glycosylated) (human). Put plainly: [35S]-labeled truncated variant on immobilized hPD-L1, normalized to [35S]-SPAM.

*1 amine or outer side, *2 acyl side, *3 side chain or, on linkers, in order; H or OH if unused. Where no end group is shown, it is not given here. [ ]: non-standard residue; d: D form. Met(35S) = [35S]-methionine label, C[35S]CC[C@H](N[*:1])C(=O)[*:2] Bounds are passed on as bounds.

In the case of [Met(35S)]LDHILNKFWILHYAGSGSSGHHHHHHSS [Trunc 3 (SPAM with P2, I3 and F4 deleted)], the binding as compared with full-length SPAM was < 25%.

Regarding [Met(35S)]DHILNKFWILHYAGSGSSGHHHHHHSS [Trunc 4 (SPAM with P2, I3, F4 and L5 deleted)], the binding as compared with full-length SPAM was < 25%.
